Data from publication doi:10.1101/2020.04.20.051433.

Biological target: Cpn60 (chloroplast chaperonin) of pea stroma (P. sativum (endogenous in pea chloroplasts))
Assay: native gel or EMSA

reduction of the 700-kDa band against full-length Plsp1: 80%
Substance: Plsp1 Δβ1-2 imported into isolated chloroplasts (from UniProt Q8H0W1 68-291) (domain or fragment)
